Results on one molecule are retold here after article PMC4365169 (Nature Communications, 2014).

This test deals with actin filaments (F-actin, rabbit skeletal muscle) (rabbit, UniProt P68135 1-377). Kind of test: co-sedimentation.

B1: GFP–TipAct (other)
chain: DERDRVQKKTFTKWVNKHLMKVRKHINDLYEDLRDGHNLISLLEVLSGIKLPREKGRMRFHRLQNVQIALDFLKQRQVKLVNIRNDDITDGNPKLTLGLIWTIILHFQISDIYISGESGDMSAKEKLLLWTQKVTAGYTGIKCTNFSSCWSDGKMFNALIHRYRPDLVDMERVQIQSNRENLEQAFEVAERLGVTRLLDAEDVDVPSPDEKSVITYVSSIYDAFPKVPEGGEGEMANRLAGLENSLESEKVSREQLIKQKDQLNSLLASLESEGAEREKRLRELEAKLDETLKNLELEKLARMELEARLAKTEKDRAILELKLAEAIDEKSKLEESSAAGGQGNSRRGLNKPSKIPTMSKKTTTASPRTPGPKR
What is called Kd is a measure of binding affinity in units of concentration. A higher Kd goes with weaker binding. Molecule B1 showed a Kd of roughly 5 µM.
